Assay results taken from the supplement of paper PMC12783771.
± gives the standard deviation of the averaged measurements.

B1: library; numbered along this chain (parent)
chain: MNIQIGELAKRTACPVVTIRFYEQEGLLPPPGRSRGNFRLYGEEHVERLQFIRHCRSLDMPLSDVRTLLSYRKRPDQDCGEVNMLLDEHIRQVESRIGALLELKHHLVELREACSGARPAQSCGILQGLSDCVCDTRGTTAHPSD

Experiments:
[1] = variants of: B1; assay: sfGFP reporter fluorescence (15 h) (µM FITC); higher = higher leak; settings: library round: Round 0; ligand: none
Summary of the method: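 An Echo normalized PCR-made linear PbrR templates to 5 nM and assembled 1 μL reactions in BL21 Star (DE3) PANOx-SP extract carrying the pPbrR-sfGFP reporter plasmid and 30 μg/mL GamS. Reactions received 1 µM lead chloride, 30 µM zinc acetate or no metal and stood 15 hr at 30 °C. Fluorescence at 485/528 nm (Synergy Neo2) was converted with FITC standard curves made in 50 mM sodium borate pH 8.5. Endpoint sfGFP signal is given in µM FITC, from up to three biological replicates.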

[2] = variants of: B1; assay: sfGFP reporter fluorescence (15 h) (µM FITC); higher = stronger transcriptional activation; settings: library round: Round 0
Protocol: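 Cell-free (BL21 Star DE3 extract, PANOx-SP) biosensing: 1 µL Echo-assembled reactions with linear PbrR variant templates (5 nM) and pPbrR-sfGFP reporter, with 1 µM Pb (lead chloride), 30 µM Zn (zinc acetate) or no ligand; endpoint sfGFP fluorescence after 15 h at 30 °C, calibrated as µM FITC. Round 0 library (alanine scan, site saturation, combinatorial) of PbrR from Cupriavidus metallidurans; 2 biological replicates.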

Row | Variant | sfGFP reporter fluorescence [1] | sfGFP reporter fluorescence ([2]; ligand: 1 µM Pb) | sfGFP reporter fluorescence ([2]; ligand: 30 µM Zn)
1 | P15N | 0.0629 ± 0.0034 | 0.0859 ± 0.0018 | 0.885 ± 0.022
2 | P15E | 0.0718 ± 0.001 | 0.088 ± 0.0021 | 0.4297 ± 0.0023
3 | P15G | 0.0643 ± 0.0018 | 0.085 ± 0.0047 | 0.447 ± 0.028
4 | P15A | 0.0674 ± 0.0042 | 0.0953 ± 0.0088 | 0.691 ± 0.02
5 | P15M | 0.0625 ± 0.0018 | 0.0795 ± 0.001 | 0.637 ± 0.02
6 | P15T | 0.0632 ± 0.00078 | 0.1006 ± 0.00078 | 0.859 ± 0.058
7 | P15I | 0.06047 ± 0.00052 | 0.0612 ± 0.0015 | 0.288 ± 0.026
8 | L8A | 0.0575 ± 0.0021 | 0.0667 ± 0.0042 | 0.313 ± 0.038
9 | R20A | 0.05772 ± 0.00026 | 0.0548 ± 0.0018 | 0.0572 ± 0.001
10 | R20S | 0.0634 ± 0.0021 | 0.061 ± 0.0023 | 0.063
11 | R20E | 0.0603 ± 0.0023 | 0.0616 ± 0.0015 | 0.06175 ± 0.00026
12 | R20C | 0.063 ± 0.0015 | 0.0618 ± 0.00078 | 0.0634 ± 0.001
13 | R20G | 0.05864 ± 0.00052 | 0.0563 ± 0.0018 | 0.0625 ± 0.0034
14 | R20I | 0.0585 ± 0.00078 | 0.06285 ± 0.00026 | 0.142 ± 0.0057
15 | R20P | 0.06285 ± 0.00026 | 0.05974 ± 0.00052 | 0.0673 ± 0.0013
16 | R20H | 0.0618 ± 0.0044 | 0.0647 ± 0.0018 | 0.1048 ± 0.001
17 | R20M | 0.0607 ± 0.00078 | 0.06066 ± 0.00026 | 0.0605 ± 0.0021
18 | R20Q | 0.06212 ± 0.00026 | 0.0607 ± 0.00078 | 0.074 ± 0.0031
19 | R20L | 0.06102 ± 0.00026 | 0.0597 ± 0.0026 | 0.0671 ± 0.0047
20 | R20F | 0.0566 ± 0.0013 | 0.05846 ± 0.00026 | 0.0581 ± 0.0039
21 | R20K | 0.0623 ± 0.001 | 0.0625 ± 0.0018 | 0.064 ± 0.00078
22 | R20D | 0.0614 ± 0.0023 | 0.0616 ± 0.0015 | 0.0687 ± 0.0013
23 | R20N | 0.06304 ± 0.00052 | 0.0674 ± 0.001 | 0.102 ± 0.0044

Row | Variant | sfGFP reporter fluorescence [1] | sfGFP reporter fluorescence ([2]; ligand: 1 µM Pb) | sfGFP reporter fluorescence ([2]; ligand: 30 µM Zn)
24 | C14A | 0.0687 ± 0.0018 | 0.0726 ± 0.0015 | 0.317 ± 0.01
25 | T18A | 0.0612 ± 0.001 | 0.0612 ± 0.0026 | 0.188 ± 0.014
26 | T12A | 0.0564 ± 0.0026 | 0.0733 ± 0.0015 | 0.611 ± 0.019
27 | E7F | 0.0601 ± 0.0015 | 0.0636 ± 0.0013 | 0.133 ± 0.012
28 | E7T | 0.0625 ± 0.0018 | 0.0894 ± 0.001 | 0.904 ± 0.041
29 | E7W | 0.0608 ± 0.0015 | 0.06359 ± 0.00026 | 0.19 ± 0.0023
30 | E7M | 0.0616 ± 0.0021 | 0.0854 ± 0.0021 | 0.859 ± 0.01
31 | E7S | 0.0625 ± 0.0018 | 0.087 ± 0.0044 | 0.999 ± 0.052
32 | E7A | 0.0552 ± 0.0018 | 0.0671 ± 0.001 | 1.07 ± 0.011
33 | E7K | 0.0662 ± 0.00078 | 0.113 ± 0.0023 | 1.99 ± 0.1
34 | E7P | 0.061 ± 0.0013 | 0.0709 ± 0.00078 | 0.3319 ± 0.0018
35 | E7C | 0.06121 ± 0.00052 | 0.0718 ± 0.0021 | 0.421 ± 0.026
36 | E7Q | 0.0605 | 0.0891 ± 0.0026 | 1.18 ± 0.057
37 | E7L | 0.06175 ± 0.00026 | 0.0837 ± 0.0013 | 0.846 ± 0.052
38 | E7I | 0.059 ± 0.001 | 0.0759 ± 0.0031 | 0.696 ± 0.014
39 | E7G | 0.05882 ± 0.00026 | 0.0755 ± 0.0042 | 0.626 ± 0.02
40 | E7H | 0.06139 ± 0.00026 | 0.083 ± 0.0013 | 0.638 ± 0.036
41 | E7V | 0.06285 ± 0.00026 | 0.0865 | 0.961 ± 0.14
42 | E7N | 0.05919 ± 0.00026 | 0.088 ± 0.0047 | 0.858 ± 0.081
43 | E7Y | 0.06249 ± 0.00026 | 0.06542 ± 0.00026 | 0.2223 ± 0.00026
44 | E7D | 0.0592 ± 0.0018 | 0.0823 ± 0.006 | 1.08 ± 0.044
45 | E7R | 0.06395 ± 0.00026 | 0.102 ± 0.0054 | 1.25 ± 0.16
